Source: the supplement of paper PMC9170038

Test system: MS2 coat protein
Experiment: apparent KD of MS2 coat protein; designed switch direction (-1 OFF switch, 1 ON switch): -1; higher = weaker reporter binding
Outline: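 SNAP-549-labelled MS2 coat protein was titrated, doubling from 0.7 or 1.5 nM to 3 µM, over designed RNA switches transcribed on Illumina chips by stalled E. coli RNA polymerase. Runs were done without input, with 200 uM small-molecule ligand, or with an oligonucleotide input. Apparent KD is the per-design median over clusters of curve-fitted normalised fluorescence.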

[1] = input ligand: microRNA oligo, concentration not stated
[2] = Eterna round: R95, input ligand: FMN 200 uM
[3] = Eterna round: R95, input ligand: microRNA oligo, concentration not stated
[4] = Eterna round: R95, input ligand: none

Row | Sequence | apparent KD of MS2 coat protein (input ligand: FMN 200 uM) | apparent KD of MS2 coat protein [1] | apparent KD of MS2 coat protein (input ligand: none) | apparent KD of MS2 coat protein [2] | apparent KD of MS2 coat protein [3] | apparent KD of MS2 coat protein [4]
1 | ACAUGAGGAUCACCCAUGUCUGGCUGGUCCGCUCCGGCUGUUGAGGAUAUAGUUCGGUGUUCGCGCUAGAAGGUGAGGGCUGGC [Aenatbe mod 36] (Eterna round: R96, puzzle: Exclusion NG 3) | 27.7 nM | 24.4 nM | 38.8 nM | – | – | –
2 | CGCGGAUGUAUAUGUCCGCACAUGAGGAUCACCCAUGUAAUAUAAGAUGAUAUUAAACAAAUUUUUGCUUGUCAGUU [Eternabot (L1) Solution 37] (Eterna round: R97, puzzle: Sensor, turn-off variant 1) | 31 nM | – | 38.2 nM | – | – | –
3 | CUAGUAUAUCAGGAUAUGAUUUUAUAUAGUUGAUCAGAAGGGAUAACAUGAGGAUCACCCAUGUUAAGGAGUGA [JR_Ex6_Sub042] (Eterna round: R97, puzzle: Exclusion 6) | 99.2 nM | – | 38.7 nM | – | – | –
4 | AAUGUUUGAUUCCACUUAUACAUGAGGAUCACCCAUGUUAUCGAGGAUAUGCAUUAGAGUGUUUAGCAGAAGGCGAUGUAAUUG [JR_ExcNG3_Sub034] (Eterna round: R96, puzzle: Exclusion NG 3) | 90.2 nM | 13.1 nM | 13.8 nM | – | – | –
5 | UACACGGUAGGAUAUACGUAGAUGCAGGUUCGUGUGGUGCUACAUGAGGAUCACCCAUGUAGAAGGGCCAACGU [Mod 6 R3 JL-ex2-2.29 - Jieux - Exclusion 2] (Eterna round: R97, puzzle: Exclusion 2) | 15.1 nM | – | 13.1 nM | – | – | –
6 | GCAUCCAAUGUGAGGAUAUACCUCUGGAUACAUAGGUAGAAGGCACAUGAGGAUCACCCAUGUUCCAAGGAUGC [Fiskers BMX 4 - 30] (puzzle: Brourd's mod of Exclusion 4) | – | – | – | 183 nM | 65 nM | 82 nM
7 | GUAAAGGUAGGAUAUACGAAGAAAAAGGGUAGAAGAAGAACACAUGAGGAUCACCCAUGUAGAAGGACCAAAUG [Mat - Exclusion 2 - Mod of my Tesla design - D4] (puzzle: Exclusion 2) | – | – | – | 63.9 nM | 24.8 nM | 28.5 nM
8 | CUUUCGUCUGUGGGUGGUGACAUGAGGAUCACCCAUGUUUUGCUCGUUUUGUCUUGGGCUCGGCGCCCGGGUUCGGG [-25.2, -46.4, A 8%] (Eterna round: R97, puzzle: Sensor, turn-off variant 1) | 467 nM | – | 872 nM | – | – | –
9 | AAGAAACAUGAGGAUCACCCAUGUGAGGAUAUGAAAAAGAAAAGAAAAGAAAGAAGCUUCAGAAGGCACAAAGG [salish99-ex1_r3_030] (puzzle: Exclusion 1) | – | – | – | 38 nM | 27.5 nM | 39.4 nM
10 | GCAGCGUAUGUAGGAUAUCGGUCAGUUUCUGAUCGAGAAGGACAUGAGGAUCACCCAUGUUAAGUCAUGCGUGAGCAUGGCUGC [JL ENG1 3.72] (Eterna round: R96, puzzle: Exclusion NG 1) | 317 nM | 23.8 nM | 31.4 nM | – | – | –
11 | UCGCUGCGAGGAUAUACAUGAGGAUCACCCAUGUGCGGGUCCGGGUCUUCGUCCAUUAGUAGAAGGCGCAGUGA [JL Laongeedie mod 4] (puzzle: Exclusion 3) | – | – | – | – | 99.9 nM | –
12 | GGUGGUAUGUCAGGAUAUACAGCCUAAAUGGAAGUAGAAGGGACACAUGAGGGUCACCCAUGUGACAUGAGGAUCACCCAUGUA [Hi3 10-05-2015] (Eterna round: R96, puzzle: Exclusion NG 1) | 64 nM | 41.1 nM | 60.7 nM | – | – | –
13 | AGUAGUUCAGGAUAUGAUGAAGAGAACAUGAGGAUCACCCAUGUUGCAUCGUUUUUAUCAUCAGAAGGGAAUAACU [JR_Ex5_Sub085] (Eterna round: R97, puzzle: Exclusion 5) | 12.7 nM | – | 13.1 nM | – | – | –
14 | CUCAUGUGAGGAUAUGUGAUCUGCUUUCUGUGUAGAUGAUCACAGAAGGCACAUGAGGAUCACCCAUGUAGAUC [Ex4 - 3 - 28] (puzzle: Exclusion 4) | – | – | – | – | 67.5 nM | –
15 | CUCUCUCAUGUGAGGAUAUCGAGGCAGUCCGCAAACGAGAAGGUACAUGAGGAUCACCCAUGUCAACAGUAAUG [BmEX4 C.8] (Eterna round: R97, puzzle: Brourd's mod of Exclusion 4) | 143 nM | – | 33 nM | – | – | –
16 | GAUUAUGCGAGCUUUAGGGACAUGAGGAUCACCCAUGUUCGUCUUAUUAGUCUAAAUGCACUGACAUACCUAAAUCU [JMF 73] (puzzle: Sensor v3, turn-off variant 1) | – | – | – | 12.9 nM | 15.3 nM | 13.9 nM
17 | UGUGCUUCAGGAUAUACGUGACGUCCGUGAGGACGAAGGUUACAUGAGGAUCACCCAUGUAGAAGGGAAGUACU [Mat - Exclusion 2 - JL Mod - D30] (Eterna round: R97, puzzle: Exclusion 2) | 110 nM | – | 20.2 nM | – | – | –

Row | Sequence | apparent KD of MS2 coat protein (input ligand: FMN 200 uM) | apparent KD of MS2 coat protein [1] | apparent KD of MS2 coat protein (input ligand: none) | apparent KD of MS2 coat protein [2] | apparent KD of MS2 coat protein [3] | apparent KD of MS2 coat protein [4]
18 | AAAGAUGGAGGAUAUACAUGAGGAUCACCCAUGUAGAAAAAAAAUUGGGAAAAAGAAAGUAGAAGGCCAAAAAA [Ex 3 May 43] (Eterna round: R96, puzzle: Exclusion 3) | 67.6 nM | 25.6 nM | 36.5 nM | – | – | –
19 | AUUUACAAGCUAAGAUCCUACAUGAGGAUCACCCAUGUGGUCCGGUGACGUGAGUCACCGGACUUAGCUCGUCUUGA [salish99_S_TOV1_R5_082] (Eterna round: R97, puzzle: Sensor, turn-off variant 1) | 32.9 nM | – | 36.8 nM | – | – | –
20 | ACAAGCUUAGGUAAUCAUAACAUGAGGAUCACCCAUGUUCGUCUUAUAAAAAUAAAAAUAAAAAACAAAAAAUAAAA [Sensor V2: 65] (Eterna round: R96, puzzle: Sensor v2, turn-off variant) | 33.3 nM | 70.6 nM | 33.8 nM | – | – | –
21 | CCUUGACAUGAGGAUCACCCAUGUGAGGAUAUGAUGCGAUCGUCGAAAGACGAUAGCAUCAGAAGGCACAUAUG [Fiskers Ex 1 - 8] (puzzle: Exclusion 1) | – | – | – | – | 25.2 nM | –
22 | ACAUGUCAUUGAGGAUAUCGCACACAUGAGGAUCACCCAUGUAAACAGAUGCUCAUAAGUGGGUUCGAGAAGGCGAUGUACAUU [Ex NG2 #100] (Eterna round: R96, puzzle: Exclusion NG 2) | 318 nM | 119 nM | 117 nM | – | – | –
23 | GGAAUACAUGAGGAUCACCCAUGUAAGGAUAUGCUGAAUAUUACGGAAUAAACGUGCAGCAGAAGGUACAAAGG [Mat - Mod of my Eli Mod D47] (puzzle: Exclusion 1) | – | – | – | 105 nM | 83.4 nM | 125 nM
24 | AAGAUGUGAGGAUAUGUAUCGCAUAUAGAGCGAACACUAGGAUAGAAGGCACAUGAGGAUCACCCAUGUGAUCG [Eternabot (L2) Solution 73] (Eterna round: R97, puzzle: Exclusion 4) | 39.9 nM | – | 45.3 nM | – | – | –
25 | AGUUGGCGAGGAUAUACAUGAGGAUCACCCAUGUGAGAGAUACUGGUGAGGUCGAUUAGUAGAAGGCGCUGACA [Mat X3R4 m15] (Eterna round: R97, puzzle: Exclusion 3) | 137 nM | – | 654 nM | – | – | –
26 | GCUGCACAUGUAGGAUAUCUGCACGUGUAGUGCAGAGAAGGACAUGAGGAUCACCCAUGUAGAUCAGCAGCAAUUAAUUUAAUU [ENG1/6-A2] (Eterna round: R96, puzzle: Exclusion NG 1) | 150 nM | 273 nM | 242 nM | – | – | –
27 | ACAUGAGGAUCACCCAUGUAAACAUAAUGGCUCAUGUAGAGUCAGGAUAUGCGUGGCGAACACGCGCAGAAGGGACAAGACUGG [Deportation 24 - Jieux - Exclusion NG 3] (Eterna round: R96, puzzle: Exclusion NG 3) | 32.4 nM | 21 nM | 31 nM | – | – | –
28 | GCAACGCUGAAAGGAUAUGUUGACCGAGAGACAACAGAAGGUUCCGCACAUGAGGAUCACCCAUGUGAUCGUAAAAGAGCAAGC [Eternabot solution 18] (Eterna round: R96, puzzle: Exclusion NG 1) | 99.5 nM | 35.9 nM | 48.1 nM | – | – | –
29 | GAGCAGGAAGGAUAUACAUGAGGAUCACCCAUGUACCAUCAAGGCUUUGAUUUUCACGGUAGAAGGUCCCAAUA [Sotece] (puzzle: Exclusion 3) | – | – | – | – | 34.8 nM | –
30 | UACAUGAGGAUCACCCAUGUUUUGUCGUGUAUGGUAUUUAUCUAGGAUAUCAAUCUAAUUAUUUAUGAGAAGGAGAAUAUUAAU [JMF's solution 50] (Eterna round: R96, puzzle: Exclusion NG 3) | 47.9 nM | 31.2 nM | 42.4 nM | – | – | –
31 | UUAAUACAUGUAGGAUAUGCGUGGCGAAGCUAUGCAGAAGGACAUGAGGAUCACCCAUGUUCCAGCGUCCGCGUACGGAUGCAA [JL Eng1 1.21 mod 12] (Eterna round: R96, puzzle: Exclusion NG 1) | 14.2 nM | 12.4 nM | 14.2 nM | – | – | –
32 | CGCUGGACAGGAUAUGUUCUUGGGCACUUGAGGAUCACCCAAGUCAUCGAGACAACAGGCACAGAAGGGUUUAUGG [salish99_ex5_r4_024] (Eterna round: R97, puzzle: Exclusion 5) | 30.7 nM | – | 38.4 nM | – | – | –
33 | GCAGCUAAUGCAGGAUAUCAGCACGAUUAGUGCUGAGAAGGGCACAUGAGGAUCACCCAUGUGAUCAAUUAAUAUUAAUGCUGC [ENG1/11-B1] (Eterna round: R96, puzzle: Exclusion NG 1) | 184 nM | 24 nM | 25.1 nM | – | – | –
